Experiments:
Assay in all cases: ELISA; recombinant human antigen coated at 1 μg/mL on Maxisorp plate overnight; antibodies 2 h at room temperature with shaking; HRP anti-human IgG, TMB, OD 450 nm; EC50 by 4PL fit
Settings in all cases: both partners purified
[1] = target: T1, Recombinant human IL-4Rα (IL-4 receptor alpha chain) (Homo sapiens, UniProt P24394)
T1 construct: interleukin-4 receptor subunit alpha, human, recombinant; source: bought: AcroBiosystems

[2] = target: T2, Recombinant human TSLP (thymic stromal lymphopoietin) (Homo sapiens, UniProt Q969D9)
T2 construct: thymic stromal lymphopoietin, human, recombinant; The reporter and T cell assays used other lots of recombinant human TSLP (R&D Systems for the reporter assay); source: bought: AcroBiosystems

[3] = target: T3, Recombinant human IL-4Rα/IL-13Rα1 receptor complex (Homo sapiens, UniProt P24394;P78552)
T3 construct: interleukin-4 receptor subunit alpha, human, recombinant; interleukin-13 receptor subunit alpha-1, human, recombinant; source: bought: AcroBiosystems

B1: IL4R-dupi parental anti-IL-4Rα antibody (dupilumab Fab arms on IgG1 Fc with K409R) (antibody, V domains shown)
VH: EVQLVESGGGLEQPGGSLRLSCAGSGFTFRDYAMTWVRQAPGKGLEWVSSISGSGGNTYYADSVKGRFTISRDNSKNTLYLQMNSLRAEDTAVYYCAKDRLSITIRPRYYGLDVWGQGTTVTVSS
VL: DIVMTQSPLSLPVTPGEPASISCRSSQSLLYSIGYNYLDWYLQKSGQSPQLLIYLGSNRASGVPDRFSGSGSGTDFTLKISRVEAEDVGFYYCMQALQTPYTFGQGTKLEIK
notes: variable region of the dupilumab heavy chain; CH1 and hinge are not described; dupilumab light chain; IgG1; Not the dupilumab analogue with native IgG4 Fc, which was used in the mouse study and the FcRn ELISA; also called IL4R-dupi parental antibody; bivalent IL4R-dupi; source: Expi293F, transiently co-transfected, purified (MabSelect SuRe)
- EC50 [1]: ~760 pM
- binding result [2]: no binding
- EC50 [3]: 190 pM
